From PMC10927774, “Mechanistic and biophysical characterization of polymyxin resistance response regulator PmrA in Acinetobacter baumannii” (Frontiers in Microbiology, 2024) come the findings set out here.

The data set concerns the molecule itself. Description: SEC; full-length PmrA incubated with BeF3- and Mg2+ (5.3 mM BeSO4, 35 mM NaF, 7 mM MgCl2) to mimic phosphorylation; 25 mM Tris pH 8.0, 150 mM NaCl, 5% glycerol. On the technique in general: In gel filtration, larger molecules generally elute earlier.

B1: Acinetobacter baumannii PmrA full length (natural protein)
chain: MTKILMIEDDFMIAESTITLLQYHQFEVEWVNNGLDGLAQLAKTKFDLILLDLGLPMMDGMQVLKQIRQRAATPVLIISARDQLQNRVDGLNLGADDYLIKPYEFDELLARIHALLRRSGVEAQLASQDQLLESGDLVLNVEQHIATFKGQRIDLSNREWAILIPLMTHPNKIFSKANLEDKLYDFDSDVTSNTIEVYVHHLRAKLGKDFIRTIRGLGYRLGQS
notes: Response regulator PmrA of A. baumannii, UniProt E2FGC2; full length, printed as residues 1–244 in the methods, while the introduction places the DBD at 129–223; Cloned in pET28a; In one SEC run it was incubated with BeF3- and Mg2+ (aspartate phosphorylation mimic); this is treated as a condition of the assay, not as another molecule; also called PmrA FL; full-length PmrA; source: E. coli BL21 …
For orientation: stoichiometry N means a count of units in the complex or per binding partner. For the protein B1, the “stoichiometry N” value was 2.
